In patent US20130274692A1, “SUBCONJUCTIVAL IMPLANT FOR POSTERIOR SEGMENT DRUG DELIVERY” (priority 2010, published 2013):
≈ marks a conversion by molar mass, not a printed value. Where two headings read alike, the source gives them in different places.

Assays:
[1] = Solubility of triamcinolone acetonide; assay type: physicochemical; details: saline or isotonic; 37 C in 0.2 M potassium chloride
Method: Consider a device with 10 uL reservoir volume loaded with 0.4 mg using a commercial drug product (40 mg/mL triamcinolone acetonide). […] The target release rate is 1 ug/day based upon published clinical data. As an example, consider the 0.2 media grade stainless steel characterized in Example 8 with P/F=0.12 and a thickness of 0.5 mm. […] This could be achieved with a cylindrical device having an inner diameter of 2 mm and a length of porous tubing of 1 mm. Alternatively, the end of the device could be a porous cup with height of 0.8 mm (0.5 mm thick porous face plus 0.3 mm length) of porous tubing.

[2] = human eye (Lucentis package insert); listed as ranibizumab; cited from earlier work
[3] = tested on: laser photocoagulation treatment-induced Grade IV choroidal neovascularization (CNV) lesions; details: intravitreal injection, all doses tested; cited from earlier work
[4] = cited from earlier work

Compound	solubility [1]	half-life in the vitreous [2]	development of Grade IV CNV lesions [3]	Half-life ([4]; monkey model (Gaudreault et al.), parameter of Simulations 1-5)	half-life in the vitreous ([4]; rabbit and monkey, listed as ranibizumab)
CC1(C)O[C@@H]2C[C@H]3[C@@H]4CCC5=CC(=O)C=C[C@]5(C)[C@@]4(F)[C@@H](O)C[C@]3(C)[C@]2(C(=O)CO)O1 [triamcinolone acetonide]	19 µg/mL (≈ 43.7 µM)	–	–	–	–
ranibizumab [Lucentis]	–	~220 h	completely inhibited	63.1 h	approximately 3 days
